Experimental data from patent US20240270821A1, “GIP/GLP1/GCG TRI-RECEPTOR AGONISTS AND USES THEREOF” (priority 2023, published 2024).

T1: human GIP receptor (human) (UniProt P48546)
T1 sequence (looked up): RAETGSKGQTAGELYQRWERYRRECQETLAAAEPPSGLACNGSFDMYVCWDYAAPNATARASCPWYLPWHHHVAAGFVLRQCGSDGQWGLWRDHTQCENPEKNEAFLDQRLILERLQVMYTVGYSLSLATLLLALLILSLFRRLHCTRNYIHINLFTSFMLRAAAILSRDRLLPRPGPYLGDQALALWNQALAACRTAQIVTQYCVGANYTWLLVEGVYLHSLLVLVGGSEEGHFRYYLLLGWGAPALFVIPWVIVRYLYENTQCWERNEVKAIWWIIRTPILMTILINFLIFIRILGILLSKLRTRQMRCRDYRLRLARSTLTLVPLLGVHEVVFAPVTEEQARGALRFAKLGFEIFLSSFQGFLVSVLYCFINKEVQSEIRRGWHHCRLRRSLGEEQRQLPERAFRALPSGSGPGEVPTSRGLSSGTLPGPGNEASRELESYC


Experiments:
Assay in all cases: cell-based or functional assay
hGLP-1R = hGLP-1R (Homo sapiens, UniProt P43220)
Sequence of hGLP-1R (P43220 24-463): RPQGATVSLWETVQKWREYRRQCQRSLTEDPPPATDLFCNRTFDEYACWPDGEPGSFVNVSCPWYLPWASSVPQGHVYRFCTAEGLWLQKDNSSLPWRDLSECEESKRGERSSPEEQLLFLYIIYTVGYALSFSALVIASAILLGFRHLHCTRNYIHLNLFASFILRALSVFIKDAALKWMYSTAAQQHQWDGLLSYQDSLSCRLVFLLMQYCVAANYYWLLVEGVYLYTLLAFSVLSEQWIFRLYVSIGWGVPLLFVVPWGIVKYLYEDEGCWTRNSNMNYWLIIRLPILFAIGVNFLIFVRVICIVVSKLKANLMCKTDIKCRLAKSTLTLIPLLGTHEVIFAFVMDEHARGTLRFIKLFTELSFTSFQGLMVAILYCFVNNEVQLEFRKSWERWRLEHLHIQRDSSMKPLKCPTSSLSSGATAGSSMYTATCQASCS

[1] = target: T1, human GIP receptor (human)
[2] = target: human glucagon receptor (human) (UniProt P47871)
Sequence of human glucagon receptor (human) (P47871 26-477): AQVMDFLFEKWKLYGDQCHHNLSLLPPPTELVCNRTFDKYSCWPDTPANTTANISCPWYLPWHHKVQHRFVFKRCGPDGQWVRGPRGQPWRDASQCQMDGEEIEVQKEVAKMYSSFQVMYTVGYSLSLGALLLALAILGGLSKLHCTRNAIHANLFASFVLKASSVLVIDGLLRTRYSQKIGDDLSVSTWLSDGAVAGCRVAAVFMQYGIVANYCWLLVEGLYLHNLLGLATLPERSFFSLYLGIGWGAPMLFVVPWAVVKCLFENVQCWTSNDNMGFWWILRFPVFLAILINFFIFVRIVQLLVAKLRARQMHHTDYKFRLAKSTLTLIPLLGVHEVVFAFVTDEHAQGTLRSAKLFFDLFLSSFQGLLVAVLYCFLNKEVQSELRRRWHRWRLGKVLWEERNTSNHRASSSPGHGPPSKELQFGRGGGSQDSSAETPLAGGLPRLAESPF

| Binder | Relative cAMP EC50 (hGLP-1R) [pM] | Relative cAMP EC50 [1] [pM] | Relative cAMP EC50 [2] [pM] |
| --- | --- | --- | --- |
| YXQGTFTSDXSQXLDXKAQXAFIEXLIAXGPSSGAPPPSGSEE (non-natural residues, acylated Lys, C-terminal amide; synthetic construct; SITE 2: note = 2-Aminoisobutyric Acid; SITE 10: note = 3-(4-Pyridyl)-L-alanine; SITE 13: note = alpha-methyl-leucine; SITE 16: note = L-ornithine; SITE 17: note = Lysine is chemically modified through conjugation of the epsilon-amino group of the Lysine side chain with (2-[2-(2-) [Example 1110] | 508 | 59 | 5910 |
| YXQGTFTSDXSQXLDXKAQXAFIEXLLEGGPSSGAPPPSGSEE (synthetic construct; SITE 2: note = 2-Aminoisobutyric Acid; SITE 10: note = 3-(4-Pyridyl)-L-alanine; SITE 13: note = alpha-methyl-leucine; SITE 16: note = L-ornithine; SITE 17: note = Lysine is chemically modified through conjugation of the epsilon-amino group of the Lysine side chain with (gamma-Gl)) [Example 946] | 2050 | 353 | 16500 |
| YXQGTFTSDXSQXLDXKAQXQFIEXLIEXGPSSGAPPPSGSEE (Aib, 4Pal, αMeL, Orn, Me4Pal, αMeY; acylated lysine; amide; synthetic construct; SITE 2: note = 2-Aminoisobutyric Acid; SITE 10: note = 3-(4-Pyridyl)-L-alanine; SITE 13: note = alpha-methyl-leucine; SITE 16: note = L-ornithine; SITE 17: note = Lysine is chemically modified through conjugation of the epsilon-amino group of the Lysine side chain with (2-[2-(2-) [Example 1109] | 2300 | 62.6 | 10800 |
| YXQGTFTSDXSQXLDXKAQXAFIEXLIAXGPSSGAPPPSGSEE (non-natural residues, lipidated Lys, C-terminal amide; synthetic construct; SITE 2: note = 2-Aminoisobutyric Acid; SITE 10: note = 3-(4-Pyridyl)-L-alanine; SITE 13: note = alpha-methyl-leucine; SITE 16: note = L-ornithine; SITE 17: note = Lysine is chemically modified through conjugation of the epsilon-amino group of the Lysine side chain with (gamma-Gl)) [Example 1107] | 510 | 44.7 | 5660 |
| YXQGTFTSDXSQXLDXKAQXAFIEXLIEXGPSSGAPPPSGSEE (non-natural residues; acylated Lys; C-terminal amide; synthetic construct; SITE 2: note = 2-Aminoisobutyric Acid; SITE 10: note = 3-(4-Pyridyl)-L-alanine; SITE 13: note = alpha-methyl-leucine; SITE 16: note = L-ornithine; SITE 17: note = Lysine is chemically modified through conjugation of the epsilon-amino group of the Lysine side chain with D-Glutami) [Example 1112] | 957 | 254 | 10700 |
| YXQGTFTSDXSQXLDXKAQXAFIEXLIAXGPSSGAPPPSGSEE (not fully specified; Aib, 4Pal, αMeL, Orn, Me4Pal, αMeY; γGlu-C18 diacid Lys; C-term amide; synthetic construct; SITE 2: note = 2-Aminoisobutyric Acid; SITE 10: note = 3-(4-Pyridyl)-L-alanine; SITE 13: note = alpha-methyl-leucine; SITE 16: note = L-ornithine; SITE 17: note = Lysine is chemically modified through conjugation of the epsilon-amino group of the Lysine side chain with D-Glutami) [Example 1114] | 840 | 47.8 | 11500 |
| YXQGTFTSDXSXXLDKKAQXAFIEXLLEGGPSSGAPPPSGSEE (synthetic construct; SITE 2: note = 2-Aminoisobutyric Acid; SITE 10: note = 3-(4-Pyridyl)-L-alanine; SITE 12: note = L-ornithine; SITE 13: note = alpha-methyl-leucine; SITE 17: note = Lysine is chemically modified through conjugation of the epsilon-amino group of the Lysine side chain with (gamma-Gl)) [Example 944] | 4860 | 216 | 6160 |
| YXQGTFTSDXSQXLDXKAQXQFIEXLIEXGPSSGAPPPSGSEE (non-natural residues; lipidated Lys; C-terminal amide; synthetic construct; SITE 2: note = 2-Aminoisobutyric Acid; SITE 10: note = 3-(4-Pyridyl)-L-alanine; SITE 13: note = alpha-methyl-leucine; SITE 16: note = L-ornithine; SITE 17: note = Lysine is chemically modified through conjugation of the epsilon-amino group of the Lysine side chain with D-Glutami) [Example 1113] | 1120 | 41.4 | 14400 |
| YXQGTFTSDXSQXLDKKAQXAFIEXLLEGGPSSGAPPPSGSEE (synthetic construct; SITE 2: note = 2-Aminoisobutyric Acid; SITE 10: note = 3-(4-Pyridyl)-L-alanine; SITE 13: note = alpha-methyl-leucine; SITE 17: note = Lysine is chemically modified through conjugation of the epsilon-amino group of the Lysine side chain with (gamma-Glu)2-CO-(CH2)16-CO2H; SITE 20:) [Example 945] | 3900 | 246 | 18000 |
| YXQGTFTSDXSQXLDXKAQXAFIEYLIEXGPSSGAPPPSGSEE (synthetic construct; SITE 2: note = 2-Aminoisobutyric Acid; SITE 10: note = 3-(4-Pyridyl)-L-alanine; SITE 13: note = alpha-methyl-leucine; SITE 16: note = L-ornithine; SITE 17: note = Lysine is chemically modified through conjugation of the epsilon-amino group of the Lysine side chain with (gamma-Gl)) [Example 937] | 2520 | 222 | 5520 |
| YXQGTXTSDXSILLDKKAQXAFIEXLEEGGPSSGAPPPSGTGE (synthetic construct; SITE 2: note = 2-Aminoisobutyric Acid; SITE 6: note = alpha-methyl-2-fluoro-L-phenylalanine; SITE 10: note = 3-(4-Pyridyl)-L-alanine; SITE 17: note = Lysine is chemically modified through conjugation of the epsilon-amino group of the Lysine side chain with (gamma-Glu)2-CO-(CH2)1) [Example 664 (SEQ ID NO: 670)] | 356 | 15.9 | 2120 |
| YXQGTXTSDXSILLDKKAQXAFIEXLEEGGPSSGAPPPSGSGE (synthetic construct; SITE 2: note = 2-Aminoisobutyric Acid; SITE 6: note = alpha-methyl-2-fluoro-L-phenylalanine; SITE 10: note = 3-(4-Pyridyl)-L-alanine; SITE 17: note = Lysine is chemically modified through conjugation of the epsilon-amino group of the Lysine side chain with (gamma-Glu)2-CO-(CH2)1) [Example 666 (SEQ ID NO: 672)] | 337 | 20.3 | 2000 |
| YXQGTFTSDXSQXLDKKAQXAFIEXLIEXGPSSGAPPPSGTGE (Aib, 4Pal, αMeL, Me4Pal; acylated Lys; C-terminal amide; synthetic construct; SITE 2: note = 2-Aminoisobutyric Acid; SITE 10: note = 3-(4-Pyridyl)-L-alanine; SITE 13: note = alpha-methyl-leucine; SITE 17: note = Lysine is chemically modified through conjugation of the epsilon-amino group of the Lysine side chain with (gamma-Glu)2-CO-(CH2)16-CO2H; SITE 20:) [Example 1119] | 3570 | 93.9 | 7610 |
| YXQGTFTSDXSQXLDKKAQXAFIEXLIEXGPSSGAPPPSGTGE (non-natural residues; Lys acylated AEEA-γGlu-C18 diacid; C-terminal amide; synthetic construct; SITE 2: note = 2-Aminoisobutyric Acid; SITE 10: note = 3-(4-Pyridyl)-L-alanine; SITE 13: note = alpha-methyl-leucine; SITE 17: note = Lysine is chemically modified through conjugation of the epsilon-amino group of the Lysine side chain with (2-[2-(2-Amino-ethoxy)-ethoxy]-acetyl)) [Example 1117] | 3510 | 124 | 4930 |
| YXQGTXTSDXSILLDXKAQXXFIEXLEEGGPSSGAPPPSGTGE (synthetic construct; SITE 2: note = 2-Aminoisobutyric Acid; SITE 6: note = alpha-methyl-2-fluoro-L-phenylalanine; SITE 10: note = 3-(4-Pyridyl)-L-alanine; SITE 16: note = L-ornithine; SITE 17: note = Lysine is chemically modified through conjugation of the epsilon-amino group of the Lysine side chai) [Example 674 (SEQ ID NO: 680)] | 210 | 26.4 | 2090 |
| YXQGTXTSDXSILLDXKAQXAFIEXLEEGGPSSGAPPPSGTGE (synthetic construct; SITE 2: note = 2-Aminoisobutyric Acid; SITE 6: note = alpha-methyl-2-fluoro-L-phenylalanine; SITE 10: note = 3-(4-Pyridyl)-L-alanine; SITE 16: note = L-ornithine; SITE 17: note = Lysine is chemically modified through conjugation of the epsilon-amino group of the Lysine side chai) [Example 665 (SEQ ID NO: 671)] | 284 | 22.3 | 2940 |
| YXQGTXTSDXSILLDKKAQXAFIEXLEEGGPSSGAPPPSGTGE (synthetic construct; SITE 2: note = 2-Aminoisobutyric Acid; SITE 6: note = alpha-methyl-2-fluoro-L-phenylalanine; SITE 10: note = 3-(4-Pyridyl)-L-alanine; SITE 17: note = Lysine is chemically modified through conjugation of the epsilon-amino group of the Lysine side chain with (2-[2-(2-Amino-ethoxy))) [Example 669 (SEQ ID NO: 675)] | 270 | 14.5 | 1760 |
| YXQGTXTSDXSILLDKKAQXAFIEXLEEGGPSSGAPPPSGEGE (synthetic construct; SITE 2: note = 2-Aminoisobutyric Acid; SITE 6: note = alpha-methyl-2-fluoro-L-phenylalanine; SITE 10: note = 3-(4-Pyridyl)-L-alanine; SITE 17: note = Lysine is chemically modified through conjugation of the epsilon-amino group of the Lysine side chain with (gamma-Glu)2-CO-(CH2)1) [Example 667 (SEQ ID NO: 673)] | 420 | 21.7 | 2340 |
| YXQGTXTSDXSILLDKKAQXAFIEXLEEGGPSSGAPPPSGGGE (synthetic construct; SITE 2: note = 2-Aminoisobutyric Acid; SITE 6: note = alpha-methyl-2-fluoro-L-phenylalanine; SITE 10: note = 3-(4-Pyridyl)-L-alanine; SITE 17: note = Lysine is chemically modified through conjugation of the epsilon-amino group of the Lysine side chain with (gamma-Glu)2-CO-(CH2)1) [Example 668 (SEQ ID NO: 674)] | 325 | 19.8 | 2030 |
